Measurements published in article PMC9482650, “Quantitative fragmentomics allow affinity mapping of interactomes” (Nature Communications, 2022).

T1: DLG3_1, Q92796
T1 sequence (Q92796 125-227, limits assumed, looked up): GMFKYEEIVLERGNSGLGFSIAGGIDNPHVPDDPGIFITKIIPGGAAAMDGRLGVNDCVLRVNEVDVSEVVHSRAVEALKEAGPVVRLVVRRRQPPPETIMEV

T2: RADIL, Q96JH8
T2 sequence (Q96JH8 971-1071, limits assumed, looked up): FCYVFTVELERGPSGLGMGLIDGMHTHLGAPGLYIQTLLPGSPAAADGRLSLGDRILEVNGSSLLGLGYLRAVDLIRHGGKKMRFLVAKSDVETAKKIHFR

T3: SHANK1, Q9Y566
T3 sequence (Q9Y566 658-767, limits assumed, looked up): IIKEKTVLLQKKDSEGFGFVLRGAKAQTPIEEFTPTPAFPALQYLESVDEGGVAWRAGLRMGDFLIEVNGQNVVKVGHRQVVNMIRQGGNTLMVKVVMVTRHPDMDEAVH

T4: LIN7A, O14910
T4 sequence (O14910 103-200, limits assumed, looked up): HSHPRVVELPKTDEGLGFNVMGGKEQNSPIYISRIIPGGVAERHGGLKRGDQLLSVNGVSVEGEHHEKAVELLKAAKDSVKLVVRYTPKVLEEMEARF

T5: DLG3_2, Q92796
T5 sequence (Q92796 221-321, limits assumed, looked up): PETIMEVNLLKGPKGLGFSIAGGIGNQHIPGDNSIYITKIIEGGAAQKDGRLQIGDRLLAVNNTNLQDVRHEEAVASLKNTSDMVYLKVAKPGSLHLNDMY

T6: GRIP1_5, Q9Y3R0
T6 sequence (Q9Y3R0 568-668, limits assumed, looked up): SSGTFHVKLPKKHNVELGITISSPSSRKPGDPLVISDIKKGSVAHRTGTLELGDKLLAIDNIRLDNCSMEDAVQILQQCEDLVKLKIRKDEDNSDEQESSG

T7: MPP6, Q9NZW5
T7 sequence (Q9NZW5 125-219, limits assumed, looked up): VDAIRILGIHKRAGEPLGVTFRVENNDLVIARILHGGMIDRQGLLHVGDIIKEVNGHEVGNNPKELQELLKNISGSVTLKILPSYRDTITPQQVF

T8: SIPA1L2, Q9P2F8
T8 sequence (Q9P2F8 945-1036, limits assumed, looked up): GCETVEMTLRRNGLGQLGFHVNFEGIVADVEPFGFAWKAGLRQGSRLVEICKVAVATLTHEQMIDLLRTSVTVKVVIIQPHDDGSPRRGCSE

T9: ARHGEF11, O15085
T9 sequence (O15085 42-136, limits assumed, looked up): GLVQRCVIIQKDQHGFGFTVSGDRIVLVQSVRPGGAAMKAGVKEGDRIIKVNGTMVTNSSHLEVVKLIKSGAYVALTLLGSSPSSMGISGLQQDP

B1: SLC22A12, Q96S37 (peptide)
chain: GNSVLKSTQF
B2: MYOZ3, Q8TDC0 (peptide)
chain: VRNLPESEEL

These binders were tested against MAGI1_2, Q96QZ7 (assay: holdup assay). Settings: plain residues with an end cap or a label only (N-terminal biotin on a linker: ado-ado).
Sequence of MAGI1_2, Q96QZ7 (Q96QZ7 456-580): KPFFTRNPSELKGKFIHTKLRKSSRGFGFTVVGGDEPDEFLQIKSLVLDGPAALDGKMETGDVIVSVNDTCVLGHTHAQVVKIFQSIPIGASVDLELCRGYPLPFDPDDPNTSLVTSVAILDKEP
Set-up: key: below the threshold = too weak to quantify, mostly under pKd 3.1 to 4

Binder	pKd
B1	below the threshold
B2	below the threshold

The binders below were run against MAGI3_2, Q5TCQ9 (assay: holdup assay). Settings: plain residues with an end cap or a label only (N-terminal biotin on a linker: ado-ado).
Sequence of MAGI3_2, Q5TCQ9 (Q5TCQ9 398-503): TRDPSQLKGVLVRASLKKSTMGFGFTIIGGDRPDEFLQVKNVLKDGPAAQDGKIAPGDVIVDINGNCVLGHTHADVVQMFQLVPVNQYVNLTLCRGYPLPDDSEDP
Set-up: key: below the threshold = too weak to quantify, mostly under pKd 3.1 to 4

Binder	pKd
B1	below the threshold
B2	below the threshold

The binders below were run against LDB3, O75112 (assay: holdup assay). Settings: plain residues with an end cap or a label only (N-terminal biotin on a linker: ado-ado).
Sequence of LDB3, O75112 (O75112 1-94): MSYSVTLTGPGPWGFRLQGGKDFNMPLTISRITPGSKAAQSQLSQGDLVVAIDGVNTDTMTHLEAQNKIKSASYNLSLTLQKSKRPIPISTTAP
Set-up: key: below the threshold = too weak to quantify, mostly under pKd 3.1 to 4

Binder	pKd
B1	below the threshold
B2	5.19

What follows are binders tested against AHNAK1, Q09666 (assay: holdup assay). Settings: plain residues with an end cap or a label only (N-terminal biotin on a linker: ado-ado).
Sequence of AHNAK1, Q09666 (Q09666 4-100): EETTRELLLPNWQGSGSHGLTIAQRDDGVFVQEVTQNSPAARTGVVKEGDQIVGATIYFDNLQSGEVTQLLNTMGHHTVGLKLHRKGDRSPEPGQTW
Set-up: key: below the threshold = too weak to quantify, mostly under pKd 3.1 to 4

Binder	pKd
B1	below the threshold
B2	below the threshold

Each binder was assayed against T1, DLG3_1, Q92796 (assay: holdup assay). Settings: plain residues with an end cap or a label only (N-terminal biotin on a linker: ado-ado).
Set-up: key: below the threshold = too weak to quantify, mostly under pKd 3.1 to 4

Binder	pKd
B1	below the threshold
B2	below the threshold

These binders were tested against T2, RADIL, Q96JH8 (assay: holdup assay). Settings: plain residues with an end cap or a label only (N-terminal biotin on a linker: ado-ado).
Set-up: key: below the threshold = too weak to quantify, mostly under pKd 3.1 to 4

Binder	pKd
B1	below the threshold
B2	below the threshold

What follows are binders tested against SCRIB_2, Q14160 (assay: holdup assay). Settings: plain residues with an end cap or a label only (N-terminal biotin on a linker: ado-ado).
Sequence of SCRIB_2, Q14160 (Q14160 857-960): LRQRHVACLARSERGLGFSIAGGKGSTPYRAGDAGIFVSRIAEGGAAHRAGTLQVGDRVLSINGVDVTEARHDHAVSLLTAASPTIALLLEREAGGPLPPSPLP
Set-up: key: below the threshold = too weak to quantify, mostly under pKd 3.1 to 4

Binder	pKd
B1	below the threshold
B2	below the threshold

The binders below were run against IL16_1, Q14005 (assay: holdup assay). Settings: plain residues with an end cap or a label only (N-terminal biotin on a linker: ado-ado).
Sequence of IL16_1, Q14005 (Q14005 210-306): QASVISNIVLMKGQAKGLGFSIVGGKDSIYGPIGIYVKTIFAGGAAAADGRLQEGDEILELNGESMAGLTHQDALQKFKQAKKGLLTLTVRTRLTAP
Set-up: key: below the threshold = too weak to quantify, mostly under pKd 3.1 to 4

Binder	pKd
B1	below the threshold
B2	below the threshold

The binders below were run against T3, SHANK1, Q9Y566 (assay: holdup assay). Settings: plain residues with an end cap or a label only (N-terminal biotin on a linker: ado-ado).
Set-up: key: below the threshold = too weak to quantify, mostly under pKd 3.1 to 4

Binder	pKd
B1	4.96
B2	below the threshold

The binders below were run against DLG1_1, Q12959 (assay: holdup assay). Settings: plain residues with an end cap or a label only (N-terminal biotin on a linker: ado-ado).
Set-up: key: below the threshold = too weak to quantify, mostly under pKd 3.1 to 4

Binder	pKd
B1	below the threshold
B2	below the threshold

What follows are binders tested against TJP1_2, Q07157 (assay: holdup assay). Settings: plain residues with an end cap or a label only (N-terminal biotin on a linker: ado-ado).
Sequence of TJP1_2, Q07157 (Q07157 181-274): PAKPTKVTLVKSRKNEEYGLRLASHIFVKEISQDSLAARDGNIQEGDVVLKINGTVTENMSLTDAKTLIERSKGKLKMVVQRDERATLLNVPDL
Set-up: key: below the threshold = too weak to quantify, mostly under pKd 3.1 to 4

Binder	pKd
B1	below the threshold
B2	below the threshold

What follows are binders tested against T4, LIN7A, O14910 (assay: holdup assay). Settings: plain residues with an end cap or a label only (N-terminal biotin on a linker: ado-ado).
Set-up: key: below the threshold = too weak to quantify, mostly under pKd 3.1 to 4

Binder	pKd
B1	below the threshold
B2	below the threshold

Each binder was assayed against T5, DLG3_2, Q92796 (assay: holdup assay). Settings: plain residues with an end cap or a label only (N-terminal biotin on a linker: ado-ado).
Set-up: key: below the threshold = too weak to quantify, mostly under pKd 3.1 to 4

Binder	pKd
B1	4.21
B2	below the threshold

Each binder was assayed against SCRIB_3, Q14160 (assay: holdup assay). Settings: plain residues with an end cap or a label only (N-terminal biotin on a linker: ado-ado).
Sequence of SCRIB_3, Q14160 (Q14160 999-1103): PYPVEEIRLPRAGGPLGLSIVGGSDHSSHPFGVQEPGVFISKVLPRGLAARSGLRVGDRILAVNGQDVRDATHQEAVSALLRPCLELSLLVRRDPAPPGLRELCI
Set-up: key: below the threshold = too weak to quantify, mostly under pKd 3.1 to 4

Binder	pKd
B1	below the threshold
B2	below the threshold

The binders below were run against T6, GRIP1_5, Q9Y3R0 (assay: holdup assay). Settings: plain residues with an end cap or a label only (N-terminal biotin on a linker: ado-ado).
Set-up: key: below the threshold = too weak to quantify, mostly under pKd 3.1 to 4

Binder	pKd
B1	below the threshold
B2	below the threshold

These binders were tested against DLG1_3, Q12959 (assay: holdup assay). Settings: plain residues with an end cap or a label only (N-terminal biotin on a linker: ado-ado).
Set-up: key: below the threshold = too weak to quantify, mostly under pKd 3.1 to 4

Binder	pKd
B1	below the threshold
B2	below the threshold

These binders were tested against T7, MPP6, Q9NZW5 (assay: holdup assay). Settings: plain residues with an end cap or a label only (N-terminal biotin on a linker: ado-ado).
Set-up: key: below the threshold = too weak to quantify, mostly under pKd 3.1 to 4

Binder	pKd
B1	below the threshold
B2	3.64

Each binder was assayed against TJP2_1, Q9UDY2 (assay: holdup assay). Settings: plain residues with an end cap or a label only (N-terminal biotin on a linker: ado-ado).
Sequence of TJP2_1, Q9UDY2 (Q9UDY2 24-128): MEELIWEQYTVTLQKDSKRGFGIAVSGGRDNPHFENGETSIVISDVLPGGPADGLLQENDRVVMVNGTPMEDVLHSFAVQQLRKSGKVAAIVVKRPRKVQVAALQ
Set-up: key: below the threshold = too weak to quantify, mostly under pKd 3.1 to 4

Binder	pKd
B1	below the threshold
B2	below the threshold

Each binder was assayed against GRASP, Q7Z6J2 (assay: holdup assay). Settings: plain residues with an end cap or a label only (N-terminal biotin on a linker: ado-ado).
Sequence of GRASP, Q7Z6J2 (Q7Z6J2 96-193): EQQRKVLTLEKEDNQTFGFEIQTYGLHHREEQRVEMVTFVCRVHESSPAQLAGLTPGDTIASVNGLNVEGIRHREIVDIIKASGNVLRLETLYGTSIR
Set-up: key: below the threshold = too weak to quantify, mostly under pKd 3.1 to 4

Binder	pKd
B1	4.07
B2	3.74

The binders below were run against FRMPD3, Q5JV73 (assay: holdup assay). Settings: plain residues with an end cap or a label only (N-terminal biotin on a linker: ado-ado).
Sequence of FRMPD3, Q5JV73 (Q5JV73 12-100): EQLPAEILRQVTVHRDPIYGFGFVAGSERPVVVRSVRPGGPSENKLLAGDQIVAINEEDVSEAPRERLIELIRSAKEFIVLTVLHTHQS
Set-up: key: below the threshold = too weak to quantify, mostly under pKd 3.1 to 4

Binder	pKd
B1	below the threshold
B2	below the threshold

These binders were tested against T8, SIPA1L2, Q9P2F8 (assay: holdup assay). Settings: plain residues with an end cap or a label only (N-terminal biotin on a linker: ado-ado).
Set-up: key: below the threshold = too weak to quantify, mostly under pKd 3.1 to 4

Binder	pKd
B1	below the threshold
B2	below the threshold

What follows are binders tested against DLG4_3, P78352 (assay: holdup assay). Settings: plain residues with an end cap or a label only (N-terminal biotin on a linker: ado-ado).
Sequence of DLG4_3, P78352 (P78352 306-403): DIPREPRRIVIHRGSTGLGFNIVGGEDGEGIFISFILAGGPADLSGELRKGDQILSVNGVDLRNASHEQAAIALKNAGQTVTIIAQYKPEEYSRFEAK
Set-up: key: below the threshold = too weak to quantify, mostly under pKd 3.1 to 4

Binder	pKd
B1	below the threshold
B2	below the threshold

What follows are binders tested against GORASP2, Q9H8Y8 (assay: holdup assay). Settings: plain residues with an end cap or a label only (N-terminal biotin on a linker: ado-ado).
Set-up: key: below the threshold = too weak to quantify, mostly under pKd 3.1 to 4

Binder	pKd
B1	below the threshold
B2	below the threshold

What follows are binders tested against PDLIM1, O00151 (assay: holdup assay). Settings: plain residues with an end cap or a label only (N-terminal biotin on a linker: ado-ado).
Sequence of PDLIM1, O00151 (O00151 1-87): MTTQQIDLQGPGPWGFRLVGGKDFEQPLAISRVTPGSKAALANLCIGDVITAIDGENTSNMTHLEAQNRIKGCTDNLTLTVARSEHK
Set-up: key: below the threshold = too weak to quantify, mostly under pKd 3.1 to 4

Binder	pKd
B1	below the threshold
B2	5.23

These binders were tested against GOPC, Q9HD26 (assay: holdup assay). Settings: plain residues with an end cap or a label only (N-terminal biotin on a linker: ado-ado).
Set-up: key: below the threshold = too weak to quantify, mostly under pKd 3.1 to 4

Binder	pKd
B1	below the threshold
B2	below the threshold

Each binder was assayed against DLG4_2, P78352 (assay: holdup assay). Settings: plain residues with an end cap or a label only (N-terminal biotin on a linker: ado-ado).
Sequence of DLG4_2, P78352 (P78352 155-259): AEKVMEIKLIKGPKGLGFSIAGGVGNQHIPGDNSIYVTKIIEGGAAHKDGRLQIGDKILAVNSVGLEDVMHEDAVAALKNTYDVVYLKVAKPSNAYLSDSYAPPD
Set-up: key: below the threshold = too weak to quantify, mostly under pKd 3.1 to 4

Binder	pKd
B1	below the threshold
B2	below the threshold

What follows are binders tested against MAGI2_2, Q86UL8 (assay: holdup assay). Settings: plain residues with an end cap or a label only (N-terminal biotin on a linker: ado-ado).
Sequence of MAGI2_2, Q86UL8 (Q86UL8 410-522): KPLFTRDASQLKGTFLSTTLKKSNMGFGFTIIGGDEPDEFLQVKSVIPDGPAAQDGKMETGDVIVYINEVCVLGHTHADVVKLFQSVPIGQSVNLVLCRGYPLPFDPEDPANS
Set-up: key: below the threshold = too weak to quantify, mostly under pKd 3.1 to 4

Binder	pKd
B1	below the threshold
B2	below the threshold

The binders below were run against T9, ARHGEF11, O15085 (assay: holdup assay). Settings: plain residues with an end cap or a label only (N-terminal biotin on a linker: ado-ado).
Set-up: key: below the threshold = too weak to quantify, mostly under pKd 3.1 to 4

Binder	pKd
B1	below the threshold
B2	3.83
